Like-named read-outs stand apart in the source and are kept apart here.
What was measured:
[1] = substrate: S protein of a SARS-CoV-2 delta lineage virus on pseudotyped virus (SARS-CoV-2 (delta lineage)); experiment: cell-based or functional assay
[2] = target: T1, SARS CoV-2 spike trimer protein from the parental Wuhan-Hu-1 isolate (extracellular domain, furin-cl (SARS-CoV-2 (Wuhan-Hu-1))); settings: remark: other sources report otherwise
[3] = target: T1, SARS CoV-2 spike trimer protein from …; experiment: ELISA, spike protein coated, IgG detected with anti-human Fc-HRP; settings: remark: other sources report otherwise
[4] = target: T1, SARS CoV-2 spike trimer protein from …; settings: remark: other sources report otherwise; remark: listed apart in the source
[5] = target: recombinant stabilized spike protein derived from the beta strain (formerly described as the South A (SARS-CoV-2 (B.1.351)), P0DTC2); settings: remark: other sources report otherwise

Binder | pseudovirus neutralization, ng/mL (quantity not given) [1] | EC50 (read off the curve) [2] | EC50 [3] | EC50 (read off the curve) [4] | EC50 (read off the curve) [5]
purified R2G3 CDR3-knob (after enterokinase cleavage from trxA) (modifications not checked) peptide: EGDKTCPDGYEHTCGCIGGCGCKRSACIGALCCQASLGGWLSDGETYTYEF | 302 ng/mL | – | – | – | –
SKM ultralong CDR3 chimeric bovine-human IgG1 antibody (antibody) VH: QVQLRESGPSLVKPSQTLSLTCTASGFSLSDKAVGWVRQAPGKALEWLGSIDTGGNTGYNPGLKSRLSITKDNSKSQVSLSVSSVTTEDSATYYCTTVHQETLRSCPDGYIDNSGCTADWGCAALDCWRRRFGYHSTDPSHYTGATYIYTYSLHIDAWGQGLLVTVSS VL: QAVLNQPSSVSGSLGQRVSITCSGSSSNVGNGYVSWYQLIPGSAPRTLIYGDTSRASGVPDRFSGSRSGNTATLTISSLQAEDEADYFCASAEDSSSNAVFGSGTTLTVL | – | 0.2 nM | 0.19 nM | – | –
SKD ultralong CDR3 chimeric bovine-human IgG1 antibody (antibody) VH: QVQLRESGPSLVKPSQTLSLTCTASGFSLSDKAVGWVRQAPGKALEWLGSIDTGGNTGYNPGLKSRLSITKDNSKSQVSLSVSSVTTEDSATYYCTTVHQRTSEKRSCPGGSSRRYPSGASCDVSGGACACYVSNCRGVLCPTLNEIVAYTYEWHVDAWGQGLLVTVSS VL: QAVLNQPSSVSGSLGQRVSITCSGSSSNVGNGYVSWYQLIPGSAPRTLIYGDTSRASGVPDRFSGSRSGNTATLTISSLQAEDEADYFCASAEDSSSNAVFGSGTTLTVL | – | – | 0.16 nM | – | –
R4C1 ultralong CDR3 chimeric bovine-human IgG1 antibody (antibody) VH: QVQLRESGPSLVKPSQTLSLTCTASGFSLSDKAVGWVRQAPGKPLEWLGSIDTAENTGYNPGLKSRLSITKDNSKSQVSLSVSSVTTEDSATYYCATVHQKTRKEKNCPDGYIYSSNTASGYDCGVWICRRVGSAFCSRTGDYTSPSEFDIYEFYVEGWGQGLLVTVSS VL: QAVLNQPSSVSGSLGQRVSITCSGSSSNVGNGYVSWYQLIPGSAPRTLIYGDTSRASGVPDRFSGSRSGNTATLTISSLQAEDEADYFCASAEDSSSNAVFGSGTTLTVL | – | 0.3 nM | 0.2 nM | 0.03 nM | 0.3 nM
R2D9 CDR3-knob (modifications not checked) peptide: ITHKTCPNGYNWFDRCCSWDGTCGDGCCSNRAWPSGNGRADSSIGETYGYEF | 66.8 ng/mL | – | – | – | –

Source: US20240262893A1
